Measurements taken from US20040242847A1.

Molecular target: human TPO receptor (MPL) (human) (UniProt P40238)
Experiment: cell-based or functional assay

- proliferation of BaF/mpl cells (WST-8), ED50: 0.027 nM
Substance: human TPO (R&D Systems) (from UniProt P40225 22-353) (ligand)
